The values below come from PMC3918043.

First the molecules themselves.
B1: wtANF-Sp-s2 (dsDNA)
DNA 1: TGAGGGTCTGGGGGAGGGAGGGTTACTGGAG
DNA 2: CTCCAGTAACCCTCCCTCCCCCAGACCCTCA
B2: wtANF-Sp-s4 (dsDNA)
DNA 1: GACATCTAGGGTGGGGGTGGGCTGTCTGG
DNA 2: CCAGACAGCCCACCCCCACCCTAGATGTC
B3: wtANF-Sp-s3 (dsDNA)
DNA 1: TATTGCCTCTCCTCCCGCCCTTATTTGGAG
DNA 2: CTCCAAATAAGGGCGGGAGGAGAGGCAATA
B4: wtANF-Sp-s1 (dsDNA)
DNA 1: GTGACAGAATGGGGAGGGTTCCAGCTCT
DNA 2: AGAGCTGGAACCCTCCCCATTCTGTCAC

In the data set the target is Sp1 (human, UniProt P08047 1-785). Description: EMSA. Background: In EMSA bound probe runs differently from free probe, usually more slowly.
Sequence of Sp1 (P08047 whole entry): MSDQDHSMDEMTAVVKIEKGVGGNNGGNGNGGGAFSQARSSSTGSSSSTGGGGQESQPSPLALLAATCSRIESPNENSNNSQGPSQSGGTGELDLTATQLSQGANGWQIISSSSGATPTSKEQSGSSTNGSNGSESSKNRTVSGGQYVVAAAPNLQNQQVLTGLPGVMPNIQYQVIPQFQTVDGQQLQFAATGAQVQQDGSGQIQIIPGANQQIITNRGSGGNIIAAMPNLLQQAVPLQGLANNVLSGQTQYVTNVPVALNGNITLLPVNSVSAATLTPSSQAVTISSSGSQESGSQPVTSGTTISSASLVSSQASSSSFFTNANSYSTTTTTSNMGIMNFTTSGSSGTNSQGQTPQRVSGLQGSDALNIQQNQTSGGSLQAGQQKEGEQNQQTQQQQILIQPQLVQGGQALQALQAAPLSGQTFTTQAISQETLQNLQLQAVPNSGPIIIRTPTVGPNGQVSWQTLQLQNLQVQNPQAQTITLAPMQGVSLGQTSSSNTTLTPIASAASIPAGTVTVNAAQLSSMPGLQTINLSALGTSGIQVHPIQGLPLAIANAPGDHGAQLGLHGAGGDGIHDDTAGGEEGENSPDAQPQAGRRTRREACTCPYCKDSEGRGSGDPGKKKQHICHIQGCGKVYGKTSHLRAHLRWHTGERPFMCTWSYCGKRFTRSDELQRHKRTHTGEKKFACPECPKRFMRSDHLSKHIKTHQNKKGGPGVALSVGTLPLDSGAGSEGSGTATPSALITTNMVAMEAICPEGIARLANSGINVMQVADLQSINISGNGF
As for B1, the binding result is “binds”.

In the case of B2, the binding result is listed as “binds”.

As to B3, the binding result is on record as “binds”.

On to B4, for which the binding result was “binds”.
